Usually koff stands for a measure of how fast the partners let go of each other.

In patent WO2000069914A2 one finds koff data, which are given here for one substance.

The target of the experiment is recombinant Epithelial Glycoprotein-2 (EGP-2), baculovirus-expressed, purified (human) (UniProt P16422). Nature of the experiment: SPR (BIAcore), scFv over amine-coupled recombinant EGP-2. (In SPR one partner is held on a chip, and binding of the other changes the refractive index at the surface.)
Chain of UniProt P16422 (P16422 24-265 limits assumed): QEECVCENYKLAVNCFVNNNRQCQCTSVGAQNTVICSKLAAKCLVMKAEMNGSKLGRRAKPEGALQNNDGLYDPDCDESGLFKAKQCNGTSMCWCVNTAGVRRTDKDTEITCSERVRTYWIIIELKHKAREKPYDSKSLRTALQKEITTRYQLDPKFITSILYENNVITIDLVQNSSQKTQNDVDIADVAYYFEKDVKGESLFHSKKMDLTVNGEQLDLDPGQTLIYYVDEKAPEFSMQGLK

As for scFv MOC-31, the koff amounted to 0.00034 s⁻¹.
